Data published in publication PMC10881042.

What was measured:
[1] = biological target: PKA type II regulatory subunit RIIα, in H295R adrenal cells (UniProt P13861)
[2] = biological target: PKA type I regulatory subunit RIα, in H295R adrenal cells (human (endogenous in H295R)) (UniProt P10644)
UniProt P10644, sequence (P10644 whole entry, stated change not applied): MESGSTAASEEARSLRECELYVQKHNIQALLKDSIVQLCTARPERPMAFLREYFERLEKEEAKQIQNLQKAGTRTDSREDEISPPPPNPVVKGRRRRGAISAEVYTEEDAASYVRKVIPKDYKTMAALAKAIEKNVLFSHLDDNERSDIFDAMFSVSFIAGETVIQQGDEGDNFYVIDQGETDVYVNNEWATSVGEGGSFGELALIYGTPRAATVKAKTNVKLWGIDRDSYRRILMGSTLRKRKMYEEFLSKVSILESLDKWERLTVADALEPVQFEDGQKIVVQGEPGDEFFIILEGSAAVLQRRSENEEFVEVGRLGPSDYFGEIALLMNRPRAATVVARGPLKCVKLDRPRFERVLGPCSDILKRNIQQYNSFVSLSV

UniProt P13861, sequence (P13861 whole entry, stated change not applied): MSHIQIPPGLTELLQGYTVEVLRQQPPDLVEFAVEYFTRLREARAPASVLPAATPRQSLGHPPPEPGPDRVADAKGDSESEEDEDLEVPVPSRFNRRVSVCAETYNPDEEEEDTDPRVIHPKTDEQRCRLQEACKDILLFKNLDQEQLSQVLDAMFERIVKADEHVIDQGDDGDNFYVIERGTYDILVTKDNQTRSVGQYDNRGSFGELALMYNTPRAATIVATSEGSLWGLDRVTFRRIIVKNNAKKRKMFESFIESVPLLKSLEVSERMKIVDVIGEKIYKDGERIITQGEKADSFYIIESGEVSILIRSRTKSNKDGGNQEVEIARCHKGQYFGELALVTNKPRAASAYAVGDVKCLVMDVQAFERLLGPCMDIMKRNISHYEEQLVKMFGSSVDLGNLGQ

- residence of photoactivatable-mCherry PKAc at the site of photoactivation after 12.5 s in H295R cells with AKAP79-YFP and RIIα-iRFP [1]: 30%
- residence of photoactivatable-mCherry PKAc at the site of photoactivation after 12.5 s in H295R cells with smAKAP-GFP and RIα-iRFP [2]: 40%
Substance: V5-tagged PKAc-W196R, in H295R adrenal cells (enzyme)
